This note sets out measurements from patent CN114935649A (dated 2022).

For this assay, the target named is T1, HPV6和HPV11的共同抗原表位肽 (SEQ ID NO:1) (HPV6 and HPV11).
T1 construct: also called 序列1的免疫抗原肽; HPV6和HPV11高免疫原性抗原肽
T1 peptide: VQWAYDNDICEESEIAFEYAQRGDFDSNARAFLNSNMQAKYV
Briefly: SPR (ProteOn XPR36), antigen amine-coupled to GLC chip, antibody as analyte at 18.75-600 nM.

B1: 单克隆抗体7C4c (antibody, V domains shown)
VH: EVQLEESATELARPGASVKLSCKASGYIFSGRWQAWIKQRPGQGLEWIGQELMWQAPHILEDSPGGKATLTADKSSSTAYMQLSSLASEDSAVYYCAGSQKWTACWGLGTTLAVSS
VL: DIVITQRPALMAASPGEKVTITCSTGYYPINQWCSWYQQKSGISPKPWIYINHDKTNGVPARFSGSGSGTSYSLTITSMEAEDAATYYCHSVQSSSCPFGAGTKLELK
In turn, B1 showed a Kd of 3.24 nM.
